We go through 5 molecules from publication PMC11886824 (Nucleic Acids Research, 2025).

Positions count from the first letter of the chain named. Read-outs that look alike come from different tables or passages of the source.

Series [1] has as its target T1, P12 WT (Enterobacteria phage PRD1, UniProt P17637 1-160).
T1 sequence: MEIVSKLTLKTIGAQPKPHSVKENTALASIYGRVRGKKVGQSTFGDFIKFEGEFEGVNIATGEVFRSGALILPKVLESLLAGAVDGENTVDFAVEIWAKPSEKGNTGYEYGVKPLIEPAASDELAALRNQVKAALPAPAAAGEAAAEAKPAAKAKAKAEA
Briefly: EMSA. For orientation: A gel shift assay detects complexes by their altered migration in electrophoresis.

For series [2], the target named is T2, P12 F44A+K10A (M2) (Enterobacteria phage PRD1, UniProt P17637 1-160, K10A;F44A).
T2 sequence: T1 sequence with K10A, F44A
Kind of series: EMSA.

Series [3] addresses T3, P12(1-122) (T3) (Enterobacteria phage PRD1, UniProt P17637 1-122, del123-160).
T3 sequence: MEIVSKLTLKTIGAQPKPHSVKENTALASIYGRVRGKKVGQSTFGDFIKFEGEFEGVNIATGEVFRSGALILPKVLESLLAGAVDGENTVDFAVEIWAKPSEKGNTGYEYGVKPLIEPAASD
Briefly: EMSA.

The target in series [4] is T1, P12 WT. Briefly: EMSA. This is another data set of the same source.
Series [5] concerns the molecule itself. Kind of series: cryo-EM structure.
In series [6] the target is T1, P12 WT. Briefly: EMSA. This is another data set of the same source.

B1: ssDNA (non-repetitive)80 (ssDNA)
DNA: AGAGACAACTGGCCGTCGTTCTATTGTACTCACTGTGATCAGAGACAACTGGCCGTCGTTCTATTGTACTCACTGTGATC
A word on the Kd: it is the constant that tells how readily two partners part at equilibrium. A lower Kd goes with higher affinity. In turn, B1 had a Kd in series [1] of 350 nM. Moreover, the binding result in series [2] and in series [3] was “no binding” throughout.

Regarding GAAAAUAAAAAUAAACUGGACAAUUAAGGAUCCUGUACAAGUCGACGCGG (ssRNA) [ssRNA (non-repetitive)50], the binding result in series [4] was “no binding”.

B2: P12, single-stranded DNA-binding protein from bacteriophage PRD1 (natural protein, UniProt P17637 1-160, looked up)
chain: T1 sequence
On to B2, for which the binding result in series [5] is reported as “binds”.

AGAGACAACTGGCCGTCGTTCTATTGTACTCACTGTGATC (ssDNA) [ssDNA (non-repetitive)40]: the binding result in series [6] is on record as “binds”.

As for GATCACAGTGAGTACAATAGAACGACGGCCAGTTGTCTCAATCTAACGGC (ssDNA) [ssDNA (non-repetitive)50], the binding result in series [4] is “binds”.
